Data reported in the supplement of paper PMC12764529.
± gives the half width of the 95% confidence interval.

Key:
[1] = folding stability dG unfold from chymotrypsin proteolysis; higher = more stable
In short: (§1)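 K50 was inferred by Bayesian fitting of sequencing counts obtained after protease digestion of designed mini-proteins. Unfolding free energy was derived by comparison with a sequence-predicted unfolded-state K50 and a shared folded-state K50, for each protease or both combined. The mini-proteins were under 80 residues, had no cysteine, were carried in a PA-tagged cDNA display construct, and were kept only if AlphaFold2 dimer inter-PAE exceeded 15.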

[2] = folding stability dG unfold from trypsin proteolysis; higher = more stable
In short: as §1

[3] = folding stability dG unfold (combined trypsin and chymotrypsin); higher = more stable
In short: as §1

Sequence: SAGGSGKVIGFSFEVETPEEAEGLFKENRPDLDVKILEVKPEEGYVRLVAVDPDGKPHVFVVPIVGSAGGSA [r2_201_TrMRF]
- folding stability dG unfold [1]: 1.34 ± 0.1 kcal/mol
- folding stability dG unfold [2]: 0.743 ± 0.055 kcal/mol
- folding stability dG unfold [3]: 1.11 ± 0.091 kcal/mol

Sequence: SAGGSAGGSMIVKLEDGTYLVRIVNKDTKEVIEIEVSAEEAEELAKELNIEKVEIVKAGEPLESAGGSAGGS [r12_294_TrROS_Hall]
- folding stability dG unfold [1]: 2.71 ± 0.059 kcal/mol
- folding stability dG unfold [2]: 1.78 ± 0.069 kcal/mol
- folding stability dG unfold [3]: 2.38 ± 0.17 kcal/mol

Sequence: SAGKLVLKPGETVEIGDMTIHFHPDGRVSATFPDGRSAAIRVTVDTDTDVVGFEFVEEHPDVGHTDAPGSAG [r5_33_TrMRF]
- folding stability dG unfold [1]: 1.12 ± 0.057 kcal/mol
- folding stability dG unfold [2]: 1.74 ± 0.1 kcal/mol
- folding stability dG unfold [3]: 1.47 ± 0.11 kcal/mol

Sequence: SDEGYKVEINPMIHRTDGKVTIMFMIQIKPGLDDLKIKIKLRLPDGKPMKVDYQRNPDNGFIMVSATMPPSA [r9_159_TrROS]
- folding stability dG unfold [1]: 4.21 ± 0.066 kcal/mol
- folding stability dG unfold [2]: 2.91 ± 0.1 kcal/mol
- folding stability dG unfold [3]: 3.53 ± 0.14 kcal/mol

Sequence: SMFRPFPLPDGRPAYDFIIPGLELASSFFPETGRPVLVLRPGGRLGAAPLFAADLDVLFSRPPLVAVEPDSA [r9_205_TrMRF]
- folding stability dG unfold [1]: 1.37 ± 0.17 kcal/mol
- folding stability dG unfold [2]: 0.634 ± 0.11 kcal/mol
- folding stability dG unfold [3]: 0.999 ± 0.14 kcal/mol

Sequence: SAGGSAGGSAGTITTPTAEFTVTLDPNGTYTVTYQNTTTTVPVGAPFTLPGGEPLTVVPASAGGSAGGSAGG [r11_147_JUSTAS]
- folding stability dG unfold [1]: 0.931 ± 0.11 kcal/mol
- folding stability dG unfold [2]: 0.0786 ± 0.069 kcal/mol
- folding stability dG unfold [3]: 0.601 ± 0.13 kcal/mol

Sequence: SAGGSAGGSLSDLPPGVELIAVGDDVVAVRRPDGSVLVFVRERDRVFVRELSPDVSIEEALADSAGGSAGGS [r12_605_TrMRF]
- folding stability dG unfold [1]: 1.52 ± 0.068 kcal/mol
- folding stability dG unfold [2]: 1.32 ± 0.029 kcal/mol
- folding stability dG unfold [3]: 1.44 ± 0.057 kcal/mol

Sequence: SAGGSAGGSAGGGELKELLKKNPGPLLLERPENTVSLILYDPKTGTYTVLTFSPTEPIPLSAGGSAGGSAGG [r7_84_JUSTAS]
- folding stability dG unfold [1]: 1.69 ± 0.11 kcal/mol
- folding stability dG unfold [2]: 1.27 ± 0.056 kcal/mol
- folding stability dG unfold [3]: 1.52 ± 0.14 kcal/mol

Sequence: SAGEIKITVEEVEDGELLVTVEITAESKEEALKALEDLIRELFGEDVEIVSVEFDEETKRIRVTIRIKPSAG [r5_810_TrROS_Hall]
- folding stability dG unfold [1]: 3.51 ± 0.29 kcal/mol
- folding stability dG unfold [2]: 4.25 ± 0.21 kcal/mol
- folding stability dG unfold [3]: 4.35 ± 0.35 kcal/mol

Sequence: SAGGSAMKIKRDNGKVRIEIDFPPEMKNPERMLMNIRSAINENPNKPIKVTMPPGHREWAKRLLKESAGGSA [r15_89_TrROS]
- folding stability dG unfold [1]: -0.686 ± 0.44 kcal/mol
- folding stability dG unfold [2]: 0.219 ± 0.19 kcal/mol
- folding stability dG unfold [3]: -0.248 ± 0.24 kcal/mol

Sequence: SAGGSAGGSMYIVNIKFYNPKTGKVLYIPIKTKKEKAEEIAKELAKKLPEIKYIKAEIKPDISSAGGSAGGS [r12_757_TrMRF]
- folding stability dG unfold [1]: 1.74 ± 0.19 kcal/mol
- folding stability dG unfold [2]: 1.21 ± 0.093 kcal/mol
- folding stability dG unfold [3]: 1.59 ± 0.19 kcal/mol

Sequence: SAGGGSSSTTTSTTTTTSTSIEPLPGDREVVVTTTTTTTTTTTTTTPPDGSSTSTTTTTTTTTTTVTLASAG [r5_428_JUSTAS]
- folding stability dG unfold [1]: 1.45 ± 0.082 kcal/mol
- folding stability dG unfold [2]: 2.57 ± 0.23 kcal/mol
- folding stability dG unfold [3]: 1.93 ± 0.13 kcal/mol

Sequence: SWYIIRIEIKIRNPKDGKSFDIEIMIHAPVEEAKEIAKEIASMFPGMRVEVKITEVMPMPPMTPEQLEKMSA [r9_421_TrROS]
- folding stability dG unfold [1]: 3.721 ± 0.027 kcal/mol
- folding stability dG unfold [2]: 2.23 ± 0.081 kcal/mol
- folding stability dG unfold [3]: 3.25 ± 0.076 kcal/mol

Sequence: SGLAPGEVVPEKFEREITDPETGKKYKVEVTTEIAPENPVRRVTVTTTPPDGTTTTTEEVIPPGEEYTLESA [r9_88_JUSTAS]
- folding stability dG unfold [1]: 0.867 ± 0.092 kcal/mol
- folding stability dG unfold [2]: -0.889 ± 0.27 kcal/mol
- folding stability dG unfold [3]: 0.468 ± 0.077 kcal/mol

Sequence: SAGGSAGGPLPLEELRRLLESRPDYEILSVEDESPDYVVVTVRFPFPLPSDEERTLRLRLRFPLSAGGSAGG [r6_152_TrMRF]
- folding stability dG unfold [1]: 3.374 ± 0.031 kcal/mol
- folding stability dG unfold [2]: 2.23 ± 0.056 kcal/mol
- folding stability dG unfold [3]: 3.08 ± 0.094 kcal/mol

Sequence: SAGSSMLDSLTVDTEVTLDPAKGTVLVKTTTTLPDGTVTRTVTTVTVEPLNPPPPPPPRFDPRTGEALESAG [r5_816_JUSTAS]
- folding stability dG unfold [1]: 0.207 ± 0.15 kcal/mol
- folding stability dG unfold [2]: 0.79 ± 0.082 kcal/mol
- folding stability dG unfold [3]: 0.549 ± 0.14 kcal/mol

Sequence: SAGMTVTVTLNYPTPGGPVTVRVLRGDEEEVVTVPPTETLTITVTLDPDSGATIEVFFPDGSSKTYPLGSAG [r5_187_JUSTAS]
- folding stability dG unfold [1]: 3.76 ± 0.14 kcal/mol
- folding stability dG unfold [2]: 2.81 ± 0.1 kcal/mol
- folding stability dG unfold [3]: 3.35 ± 0.18 kcal/mol

Sequence: SAGGNWRIVEIPIKFPPGQDLTTIAKEIAKELLPPGEDVSINVEQRPNYMRIYIFYPEDGKPLWEIEISAGG [r13_724_TrROS]
- folding stability dG unfold [1]: 2.81 ± 0.048 kcal/mol
- folding stability dG unfold [2]: 1.95 ± 0.054 kcal/mol
- folding stability dG unfold [3]: 2.58 ± 0.075 kcal/mol

Sequence: SAGGGEYYAIVRIEVKDPESEETSELELVIPVEGLSEEEALEIARAIAETFPKENVKAEVEIVPRELSAGGS [r16_774_TrMRF]
- folding stability dG unfold [1]: 0.896 ± 0.16 kcal/mol
- folding stability dG unfold [2]: 1.05 ± 0.043 kcal/mol
- folding stability dG unfold [3]: 0.936 ± 0.11 kcal/mol

Sequence: SMTIRIVDEKTKEVREIKIENLTVEKEKDGRYRMTREQVLEALKKLLPEDVKIVEVEENEDGELTIVVEPSA [r9_997_TrROS_Hall]
- folding stability dG unfold [1]: 2.906 ± 0.025 kcal/mol
- folding stability dG unfold [2]: 2.41 ± 0.051 kcal/mol
- folding stability dG unfold [3]: 2.77 ± 0.083 kcal/mol

Sequence: SAEVYEFGNAVVVVTTSPDGTVRVYVFNPETGEVTEIEIHPDTPGEYKVRPLGNGEVKEATVPVSDILPVSA [r9_1071_TrMRF]
- folding stability dG unfold [1]: 1.42 ± 0.2 kcal/mol
- folding stability dG unfold [2]: 0.851 ± 0.051 kcal/mol
- folding stability dG unfold [3]: 1.19 ± 0.23 kcal/mol
